“And” between values parts separate entries of the source, which are not always exact repeats. Equal entries are not always repeated. One block for each binder: values may come before it.
Assays:
[1] = molecular target: T1, in-house generated I domain of α11β1 (human, UniProt Q9UKX5 159-349, limits assumed); experiment: SPR, single-cycle injections of 33, 100 and 300 nM over the a11b1 I Domain
T1 construct: domain: I domain; also called human α11β1 I domain; α11β1 I Domain
T1 sequence (looked up): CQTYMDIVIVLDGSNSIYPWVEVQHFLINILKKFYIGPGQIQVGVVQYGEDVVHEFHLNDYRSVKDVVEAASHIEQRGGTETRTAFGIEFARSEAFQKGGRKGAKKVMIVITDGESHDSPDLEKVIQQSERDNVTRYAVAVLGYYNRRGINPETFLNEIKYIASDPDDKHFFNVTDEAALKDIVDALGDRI

recombinant human α11β1 [2] = molecular target: T2, recombinant human α11β1 (human, UniProt Q9UKX5 23-1141; P05556 21-728); experiment: SPR, HIS-tagged human α11β1 captured by anti-HIS, antibody as analyte, single-cycle kinetics
T2 construct: Coated in ELISA; ELISA and SPR material treated as one molecule; also called HIS-tagged human α11β1; integrin alpha 11 beta 1
Procedure: (§1) The affinity of antibodies for human α11β1 was measured by surface plasmon resonance assay (SPR). Affinity was measured at pH 7.6 and 25° C. with a Biacore T200 instrument. Anti-HIS antibody was immobilized on the SPR sensor surface using EDC/NHS covalent attachment. HIS-tagged human α11β1 was captured on the sensor surface and a single-cycle kinetics assay was used. Increasing concentrations of test antibody were injected in series over the sensor-bound α11β1. Dissociation was monitored for 1000 seconds. A sensor surface with only anti-HIS antibody and a series of blank injections were used to double-reference subtract the data. A 1:1 Langmuir model was fit to the data to estimate the kinetic association and dissociation constants. The affinity (equilibrium dissociation constant) of the interaction was calculated by dividing the kinetic dissociation constant by the kinetic association constant. Between injection cycles α11β1 and bound antibody were removed with an injection of 10 mM glycine at pH 1.5.
The binding affinity of antibodies for the α11β1 Headpiece and α11β1 I Domain as measured by SPR is shown in FIG. 10A and FIG. 10B, respectively.

[3] = molecular target: T3, α11β1 on human myofibroblasts (MF) (human, UniProt Q9UKX5 23-1188; P05556 21-798); experiment: FACS titration on human myofibroblasts
T3 construct: whole, on cells
Procedure: Human Pulmonary Fibroblasts (ScienCell) were cultured in complete Fibroblast Growth Medium (ScienCell) until 80% confluent in T-150 flasks. Cells were washed and harvested using Accutase. Cells were seeded into T-150 flasks at 7,500 cells/cm² in complete FGF and cultured for 72 hours. Cells were then washed and starved in serum reduced medium for 24 hours. After starvation, cells were treated with TGFβ-1 (R&D Systems) for 72 hours. Cells were harvested using Accutase and seeded in 96-well conical bottom plates. Cells were blocked with Heat Inactived Fetal Bovine Serum (Gibco) for 30 minutes at 4° C. Cells were then incubated with anti-α11 antibodies at the doses described in each figure for 30 minutes at 4° C. A human anti-α11 antibody (Creative BioLabs) was included as a positive control as well as the appropriate IgG isotype negative controls. Cells were washed twice and incubated with PE conjugated secondary antibodies specific to the IgG class of the anti-α11 antibodies being tested for 30 minutes at 4° C. Cells were washed twice and fixed in 1% PFA for 30 minutes. Cells were acquired on a FACS Verse […]. Data were analyzed by gating on single cells and determining the geometric Mean Fluorescence Intensity (gMFI) in the PE channel for each sample.

recombinant mouse α11β1 = molecular target: T4, recombinant mouse α11β1 (mouse, UniProt P61622 23-1141; P09055 21-728, limits assumed); experiment: ELISA on recombinant mouse α11β1
T4 construct: also called murine α11β1
Procedure: 0.25 μg/mL of target antigen (recombinant human or mouse α11β1) was plated in a 96-well plate over night at 4° C. Plates were washed (PBS with 0.1% Tween-20), blocked (PBS with 2% BSA and 0.05% Tween-20) for 1 hour at room temperature and incubated with a range of antibody concentrations for 1 hour at room temperature. Subsequently, plates were washed and incubated with biotinylated anti-rabbit/mouse/human IgG in a 1:1000 dilution buffer and incubated for 1 hour at room temperature. After washing the plates, Streptavidin HRP was added at 1:200 in dilution buffer and incubated for 1 hour at room temperature. Ultra TMB ELISA substrate solution was added and the plates incubated for 5 minutes on a plate shaker. The reaction was stopped by adding stop solution to each well and plates were read at 450 nm.

[4] = molecular target: T5, human α11β1 expressed on the surface of CHO-K1 cells (human, UniProt Q9UKX5 23-1188); experiment: cell-based or functional assay
[5] = molecular target: T5, human α11β1 expressed on the surface of …; experiment: FACS titration on Human CHO-α11 cells
Procedure: 200,000 cells (wild-type CHO-K1 cells or CHO-K1 cells expressing human α11) were incubated with each antibody at desired concentrations in FACS buffer for 30 min at 4° C. Then, the cells were washed with FACS buffer and incubated with secondary antibody at 1:100 dilution for 30 minutes at 4° C. Cells were then washed and fixed with 1% PFA in PBS for 20 minutes at room temperature; washed again and read on a cytometer in FACS buffer.

recombinant human α11β1 [6] = molecular target: T2, recombinant human α11β1; experiment: SPR (Biacore T200), HIS-tagged human α11β1 captured on anti-HIS, single-cycle kinetics, 1:1 Langmuir fit
Procedure: as §1

[7] = molecular target: T5, human α11β1 expressed on the surface of …; experiment: cell-based or functional assay; remark: listed apart in the source
Mouse CHO-α11 = Mouse CHO-α11 (mouse, UniProt P61622); experiment: FACS titration on Mouse CHO-α11 cells
Mouse CHO-α11, sequence (P61622 23-1188): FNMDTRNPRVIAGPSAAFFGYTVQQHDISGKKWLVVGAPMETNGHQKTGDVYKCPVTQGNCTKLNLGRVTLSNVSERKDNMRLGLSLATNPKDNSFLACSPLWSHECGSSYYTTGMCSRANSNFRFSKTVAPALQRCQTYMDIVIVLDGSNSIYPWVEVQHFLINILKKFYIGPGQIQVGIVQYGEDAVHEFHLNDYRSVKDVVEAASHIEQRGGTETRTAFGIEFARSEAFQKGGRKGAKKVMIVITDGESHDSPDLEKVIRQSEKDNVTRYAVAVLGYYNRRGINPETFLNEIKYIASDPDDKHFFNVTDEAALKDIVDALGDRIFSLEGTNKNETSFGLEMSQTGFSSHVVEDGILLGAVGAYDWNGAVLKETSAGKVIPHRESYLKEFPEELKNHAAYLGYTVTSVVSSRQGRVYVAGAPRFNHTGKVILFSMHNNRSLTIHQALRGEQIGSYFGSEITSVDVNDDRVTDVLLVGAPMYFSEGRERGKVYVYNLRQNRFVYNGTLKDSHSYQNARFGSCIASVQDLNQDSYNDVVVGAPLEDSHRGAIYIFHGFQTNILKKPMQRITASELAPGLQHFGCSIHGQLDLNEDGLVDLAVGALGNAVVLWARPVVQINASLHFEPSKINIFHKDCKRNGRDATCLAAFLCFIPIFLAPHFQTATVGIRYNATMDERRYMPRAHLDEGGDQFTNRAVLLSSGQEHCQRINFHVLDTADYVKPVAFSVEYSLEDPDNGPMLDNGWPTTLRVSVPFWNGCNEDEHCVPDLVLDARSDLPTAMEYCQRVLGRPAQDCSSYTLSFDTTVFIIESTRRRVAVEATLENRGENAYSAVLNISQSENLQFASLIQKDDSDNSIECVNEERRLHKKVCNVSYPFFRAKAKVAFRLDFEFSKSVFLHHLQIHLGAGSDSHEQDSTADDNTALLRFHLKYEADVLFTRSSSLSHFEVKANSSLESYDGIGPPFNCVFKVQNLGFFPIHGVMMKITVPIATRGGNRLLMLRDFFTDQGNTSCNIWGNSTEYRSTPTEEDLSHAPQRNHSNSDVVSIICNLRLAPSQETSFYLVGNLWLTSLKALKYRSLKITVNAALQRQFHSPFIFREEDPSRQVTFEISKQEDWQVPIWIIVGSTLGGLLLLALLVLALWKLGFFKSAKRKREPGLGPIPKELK

T3 sequence (Q9UKX5 23-1188, chain 1 of 2): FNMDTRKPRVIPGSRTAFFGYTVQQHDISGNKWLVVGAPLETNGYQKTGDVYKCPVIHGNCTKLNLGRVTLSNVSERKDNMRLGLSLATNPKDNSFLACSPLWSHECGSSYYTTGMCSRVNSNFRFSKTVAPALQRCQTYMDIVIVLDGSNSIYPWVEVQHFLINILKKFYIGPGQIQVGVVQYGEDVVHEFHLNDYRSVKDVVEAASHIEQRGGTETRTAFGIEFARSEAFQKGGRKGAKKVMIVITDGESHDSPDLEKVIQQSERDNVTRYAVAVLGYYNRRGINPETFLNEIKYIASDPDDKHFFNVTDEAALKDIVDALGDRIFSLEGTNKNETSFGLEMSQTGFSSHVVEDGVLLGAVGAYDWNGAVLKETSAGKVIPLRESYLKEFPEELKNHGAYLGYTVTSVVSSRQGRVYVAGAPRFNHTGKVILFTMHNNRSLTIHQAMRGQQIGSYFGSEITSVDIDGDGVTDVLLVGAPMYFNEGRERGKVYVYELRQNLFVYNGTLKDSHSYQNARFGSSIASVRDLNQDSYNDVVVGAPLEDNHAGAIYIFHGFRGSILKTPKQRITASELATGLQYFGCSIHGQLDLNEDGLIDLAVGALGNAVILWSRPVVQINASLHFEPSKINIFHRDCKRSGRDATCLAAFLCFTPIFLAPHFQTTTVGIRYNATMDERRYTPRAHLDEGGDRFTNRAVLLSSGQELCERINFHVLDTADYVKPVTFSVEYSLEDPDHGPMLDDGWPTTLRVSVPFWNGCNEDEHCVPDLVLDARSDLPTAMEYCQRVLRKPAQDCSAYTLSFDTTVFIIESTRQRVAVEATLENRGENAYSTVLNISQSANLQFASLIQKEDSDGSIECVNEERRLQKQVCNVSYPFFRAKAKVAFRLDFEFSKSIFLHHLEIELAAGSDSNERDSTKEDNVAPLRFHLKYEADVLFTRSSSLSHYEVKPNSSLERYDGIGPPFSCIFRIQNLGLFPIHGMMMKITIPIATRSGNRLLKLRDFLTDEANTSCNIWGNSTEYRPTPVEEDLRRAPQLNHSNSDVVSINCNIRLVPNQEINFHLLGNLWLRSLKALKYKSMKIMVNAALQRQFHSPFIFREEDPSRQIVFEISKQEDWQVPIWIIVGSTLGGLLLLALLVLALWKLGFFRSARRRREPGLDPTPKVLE
T3 sequence (P05556 21-798, chain 2 of 2): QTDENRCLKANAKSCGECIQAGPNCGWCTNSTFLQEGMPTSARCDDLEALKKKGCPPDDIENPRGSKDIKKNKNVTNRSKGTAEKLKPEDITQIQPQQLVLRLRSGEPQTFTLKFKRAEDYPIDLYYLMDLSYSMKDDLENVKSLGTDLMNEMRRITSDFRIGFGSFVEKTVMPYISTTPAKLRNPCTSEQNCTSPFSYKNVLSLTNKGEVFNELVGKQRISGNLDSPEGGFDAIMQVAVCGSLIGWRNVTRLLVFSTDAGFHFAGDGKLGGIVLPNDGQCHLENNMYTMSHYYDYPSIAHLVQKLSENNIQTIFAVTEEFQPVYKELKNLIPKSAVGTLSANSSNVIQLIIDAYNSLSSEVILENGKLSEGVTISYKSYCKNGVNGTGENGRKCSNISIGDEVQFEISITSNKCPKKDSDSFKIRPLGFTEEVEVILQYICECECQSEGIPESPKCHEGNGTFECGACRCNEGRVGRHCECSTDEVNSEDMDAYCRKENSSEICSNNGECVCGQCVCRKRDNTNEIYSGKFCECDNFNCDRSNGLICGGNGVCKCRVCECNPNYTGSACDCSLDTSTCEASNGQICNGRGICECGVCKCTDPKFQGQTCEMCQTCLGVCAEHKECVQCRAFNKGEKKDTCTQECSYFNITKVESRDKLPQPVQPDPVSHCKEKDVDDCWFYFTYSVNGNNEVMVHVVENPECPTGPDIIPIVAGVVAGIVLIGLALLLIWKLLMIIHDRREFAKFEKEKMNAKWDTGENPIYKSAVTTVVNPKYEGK
T5 sequence (Q9UKX5 23-1188): as the sequence (Q9UKX5 23-1188, chain 1 of 2) above
T2 sequence (Q9UKX5 23-1141 limits assumed, chain 1 of 2): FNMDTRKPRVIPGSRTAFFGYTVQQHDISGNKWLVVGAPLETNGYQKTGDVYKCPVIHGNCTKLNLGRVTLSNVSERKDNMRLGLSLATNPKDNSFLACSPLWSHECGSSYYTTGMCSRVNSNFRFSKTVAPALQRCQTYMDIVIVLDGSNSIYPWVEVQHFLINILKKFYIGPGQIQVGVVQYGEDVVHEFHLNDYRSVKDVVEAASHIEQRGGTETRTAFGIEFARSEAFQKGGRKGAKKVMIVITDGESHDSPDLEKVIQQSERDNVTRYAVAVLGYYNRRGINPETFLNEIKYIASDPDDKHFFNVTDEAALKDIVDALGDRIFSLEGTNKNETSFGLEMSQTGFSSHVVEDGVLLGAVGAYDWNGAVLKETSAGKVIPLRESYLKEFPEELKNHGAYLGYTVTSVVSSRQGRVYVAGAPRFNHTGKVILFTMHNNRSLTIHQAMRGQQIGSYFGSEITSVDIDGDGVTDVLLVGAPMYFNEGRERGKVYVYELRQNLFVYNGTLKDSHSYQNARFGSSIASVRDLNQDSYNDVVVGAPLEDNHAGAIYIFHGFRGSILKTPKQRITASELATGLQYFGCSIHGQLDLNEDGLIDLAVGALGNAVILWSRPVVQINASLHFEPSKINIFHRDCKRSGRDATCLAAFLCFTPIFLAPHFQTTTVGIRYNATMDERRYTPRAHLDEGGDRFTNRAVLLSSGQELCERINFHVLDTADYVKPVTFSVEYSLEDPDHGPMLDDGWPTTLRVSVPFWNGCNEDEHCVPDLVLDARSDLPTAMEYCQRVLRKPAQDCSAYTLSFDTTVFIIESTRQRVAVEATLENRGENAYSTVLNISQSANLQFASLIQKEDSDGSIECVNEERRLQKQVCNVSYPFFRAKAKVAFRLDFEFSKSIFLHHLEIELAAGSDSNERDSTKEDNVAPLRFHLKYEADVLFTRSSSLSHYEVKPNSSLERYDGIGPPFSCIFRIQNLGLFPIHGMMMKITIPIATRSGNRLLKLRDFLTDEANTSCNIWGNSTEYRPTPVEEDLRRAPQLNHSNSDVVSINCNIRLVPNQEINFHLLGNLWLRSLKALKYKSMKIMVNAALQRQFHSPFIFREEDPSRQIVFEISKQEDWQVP
T2 sequence (P05556 21-728 limits assumed, chain 2 of 2): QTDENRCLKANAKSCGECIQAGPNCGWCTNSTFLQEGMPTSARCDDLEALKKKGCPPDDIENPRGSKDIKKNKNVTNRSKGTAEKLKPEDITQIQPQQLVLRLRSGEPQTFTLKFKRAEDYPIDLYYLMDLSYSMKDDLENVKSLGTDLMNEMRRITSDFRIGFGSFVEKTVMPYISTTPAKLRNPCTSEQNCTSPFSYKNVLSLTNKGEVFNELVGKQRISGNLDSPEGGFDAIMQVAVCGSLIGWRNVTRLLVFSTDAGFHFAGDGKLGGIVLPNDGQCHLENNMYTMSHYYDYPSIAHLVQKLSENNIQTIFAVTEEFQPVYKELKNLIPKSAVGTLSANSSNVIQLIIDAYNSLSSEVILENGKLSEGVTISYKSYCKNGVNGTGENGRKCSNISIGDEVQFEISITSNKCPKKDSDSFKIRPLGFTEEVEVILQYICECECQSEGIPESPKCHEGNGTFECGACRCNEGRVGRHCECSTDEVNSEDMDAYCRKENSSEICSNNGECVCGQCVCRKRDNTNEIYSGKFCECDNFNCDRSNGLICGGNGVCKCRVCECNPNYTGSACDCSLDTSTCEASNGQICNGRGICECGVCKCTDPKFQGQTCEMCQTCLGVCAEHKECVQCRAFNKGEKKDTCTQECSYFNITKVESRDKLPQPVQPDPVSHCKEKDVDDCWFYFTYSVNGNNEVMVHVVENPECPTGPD

- binding result [1]: no binding (tested: 300 nM)
- Kd (recombinant human α11β1 [2]): 0.048 nM
- EC50 [3]: 0.051 µg/mL and 0.3 nM
- binding result (recombinant mouse α11β1): no binding
- IC50, inhibition of adhesion of CHO-α11 cells to rat tail type I collagen [4]: 0.39 nM
- EC50 [5]: 0.35 nM
- koff (recombinant human α11β1 [6]): 0.000234 s⁻¹
B1: A11B1_16E10 (antibody, V domains shown)
VH: QSLEESGGDLVKPGASLTLTCRVSGFSFSSSYYMCWVRQAPGKGLEWIACIGTTRGSTYYATWAKGRFTISKISSTTVTLQMTSLTDADTATYFCARDATGYRINTIGLYFNLWGPGTLVTVSS
VL: AFELTQTPSSVEAAVGGTPTIKCQASQTIYSYLSWYQQKPGQPPKLLIYEASKLASGVPSRFSGSGSGTDYTLTISDLECADAATYYCQSYHGTASTEYNTFGGGTEVVVRG
notes: recombinant rabbit IgG, full chains

- IC50 of blocking cell adhesion to type I collagen [7]: 9.4 nM
- Kd (recombinant human α11β1 [2]): 0.01 nM
- EC50 [3]: 0.5 µg/mL and 3.35 nM
- binding result (recombinant mouse α11β1): binds
- EC50 (Mouse CHO-α11): 3.5 nM
- EC50 [5]: 7.3 nM
- koff (recombinant human α11β1 [6]): 0.000108 s⁻¹
- kon (recombinant human α11β1 [6]): 1.07e+07 M⁻¹ s⁻¹
B2: 79E3E3 (antibody, V domains shown)
VH: QIQLVQSGPEVKKPGESVKISCKASGYTFTDYAMNWVKQAPGNGLKWMGWINTQTGKPTYADDFKQRFVFSLETSARTTYLQINNLNIEDTATYFCTRLGTGNTKGFAYWGQGTLVTVSS
VL: DILINQSPASLTVSAGERVTMSCKSSQSLLYSENNQDYLAWYQQKPGQFPKLLIYGASNRHTGVPDRFTGSGSGTDFTLTISSVQAEDLADYYCEQTYRYPFTFGSGTKLEIK
notes: rat hybridoma mAb
